Measurements published in patent publication US20090317363A1.
Residue numbers refer to the chain shown, from its start.

B1: RANTES derivative: signature sequence SEQ ID NO: 58 fused to positions 10-68 of native RANTES (SEQ ID NO: 1) (ligand)
chain: QGPPLMTLQVCCFAYIARPLPRAHIKEYFYTSGKCSNPAVVFVTRKNRQVCANPEKKWVREYINSLEMS
B2: RANTES derivative: signature sequence SEQ ID NO: 59 fused to positions 10-68 of native RANTES (SEQ ID NO: 1) (ligand)
chain: B1 chain with L5G, M6Q, T7W, L8Y, V10S
B3: RANTES derivative: signature sequence SEQ ID NO: 60 fused to positions 10-68 of native RANTES (SEQ ID NO: 1) (ligand)
chain: B1 chain with M6Q, T7W, L8M, V10A
B4: RANTES derivative: signature sequence SEQ ID NO: 61 fused to positions 10-68 of native RANTES (SEQ ID NO: 1) (ligand)
chain: B1 chain with M6Q, T7W, L8M
B5: RANTES derivative: signature sequence SEQ ID NO: 62 fused to positions 10-68 of native RANTES (SEQ ID NO: 1) (ligand)
chain: B1 chain with T7S, L8T
B6: RANTES derivative: signature sequence SEQ ID NO: 63 fused to positions 10-68 of native RANTES (SEQ ID NO: 1) (ligand)
chain: B1 chain with T7S, Q9S
B7: RANTES derivative: signature sequence SEQ ID NO: 7 fused to positions 10-68 of native RANTES (SEQ ID NO: 1) (ligand)
chain: B1 chain with T7W, L8T
B8: RANTES derivative: signature sequence SEQ ID NO: 64 fused to positions 10-68 of native RANTES (SEQ ID NO: 1) (ligand)
chain: B1 chain with T7S, V10S
B9: RANTES derivative: signature sequence SEQ ID NO: 65 fused to positions 10-68 of native RANTES (SEQ ID NO: 1) (ligand)
chain: B1 chain with T7S, V10A
B10: RANTES derivative: signature sequence SEQ ID NO: 66 fused to positions 10-68 of native RANTES (SEQ ID NO: 1) (ligand)
chain: B1 chain with T7S, L8V, V10S
B11: RANTES derivative: signature sequence SEQ ID NO: 67 fused to positions 10-68 of native RANTES (SEQ ID NO: 1) (ligand)
chain: B1 chain with T7S, L8A, V10S
B12: RANTES derivative: signature sequence SEQ ID NO: 68 fused to positions 10-68 of native RANTES (SEQ ID NO: 1) (ligand)
chain: B1 chain with T7S, L8G, V10S
B13: RANTES derivative: signature sequence SEQ ID NO: 69 fused to positions 10-68 of native RANTES (SEQ ID NO: 1) (ligand)
chain: B1 chain with T7S, L8G
B14: RANTES derivative: signature sequence SEQ ID NO: 8 fused to positions 10-68 of native RANTES (SEQ ID NO: 1) (ligand)
chain: B1 chain with T7W, L8M, V10S
B15: RANTES derivative: signature sequence SEQ ID NO: 10 fused to positions 10-68 of native RANTES (SEQ ID NO: 1) (ligand)
chain: B1 chain with T7W, V10S
B16: RANTES derivative: signature sequence SEQ ID NO: 11 fused to positions 10-68 of native RANTES (SEQ ID NO: 1) (ligand)
chain: B1 chain with T7A
B17: RANTES derivative: signature sequence SEQ ID NO: 12 fused to positions 10-68 of native RANTES (SEQ ID NO: 1) (ligand)
chain: B1 chain with T7W, Q9G, V10G
B18: RANTES derivative: signature sequence SEQ ID NO: 13 fused to positions 10-68 of native RANTES (SEQ ID NO: 1) (ligand)
chain: B1 chain with T7W, L8R, Q9G, V10S
B19: RANTES derivative: signature sequence SEQ ID NO: 14 fused to positions 10-68 of native RANTES (SEQ ID NO: 1) (ligand)
chain: B1 chain with P4L, T7W
B20: RANTES derivative: signature sequence SEQ ID NO: 15 fused to positions 10-68 of native RANTES (SEQ ID NO: 1) (ligand)
chain: B1 chain with T7Q, L8T, Q9T, V10P
B21: RANTES derivative: signature sequence SEQ ID NO: 3 fused to positions 10-68 of native RANTES (SEQ ID NO: 1) (ligand)
chain: B1 chain with T7W, L8M
B22: RANTES derivative: signature sequence SEQ ID NO: 16 fused to positions 10-68 of native RANTES (SEQ ID NO: 1) (ligand)
chain: B1 chain with L5G, M6D, L8V, Q9L, V10W
B23: RANTES derivative: signature sequence SEQ ID NO: 17 fused to positions 10-68 of native RANTES (SEQ ID NO: 1) (ligand)
chain: B1 chain with L5G, M6D, T7I, L8V, Q9L, V10A
B24: RANTES derivative: signature sequence SEQ ID NO: 18 fused to positions 10-68 of native RANTES (SEQ ID NO: 1) (ligand)
chain: B1 chain with L5G, M6S, T7Y, L8D, Q9Y, V10S
B25: RANTES derivative: signature sequence SEQ ID NO: 19 fused to positions 10-68 of native RANTES (SEQ ID NO: 1) (ligand)
chain: B1 chain with L5G, M6D, T7G, L8G, Q9S
B26: RANTES derivative: signature sequence SEQ ID NO: 20 fused to positions 10-68 of native RANTES (SEQ ID NO: 1) (ligand)
chain: B1 chain with P4L, L5S, M6G, T7Q, L8S, Q9T, V10P
B27: RANTES derivative: signature sequence SEQ ID NO: 21 fused to positions 10-68 of native RANTES (SEQ ID NO: 1) (ligand)
chain: B1 chain with L5G, M6D, T7W
B28: RANTES derivative: signature sequence SEQ ID NO: 22 fused to positions 10-68 of native RANTES (SEQ ID NO: 1) (ligand)
chain: B1 chain with T7S, L8F, V10S
B29: RANTES derivative: signature sequence SEQ ID NO: 23 fused to positions 10-68 of native RANTES (SEQ ID NO: 1) (ligand)
chain: B1 chain with T7S, L8T, V10S
B30: RANTES derivative: signature sequence SEQ ID NO: 24 fused to positions 10-68 of native RANTES (SEQ ID NO: 1) (ligand)
chain: B1 chain with T7S
B31: RANTES derivative: signature sequence SEQ ID NO: 26 fused to positions 10-68 of native RANTES (SEQ ID NO: 1) (ligand)
chain: B1 chain with P4L, L5S, M6G, T7W
B32: RANTES derivative: signature sequence SEQ ID NO: 28 fused to positions 10-68 of native RANTES (SEQ ID NO: 1) (ligand)
chain: B1 chain with L5G, M6S, T7W, L8S, Q9S
B33: RANTES derivative: signature sequence SEQ ID NO: 29 fused to positions 10-68 of native RANTES (SEQ ID NO: 1) (ligand)
chain: B1 chain with M6G, T7S, L8M, Q9G, V10P

Biological target: CCR5 (UniProt P51681)
Assay: cell-based or functional assay

Molecule	CCR5 sequestration (%) (% of control surface CCR5)	CCR5 signalling (%) (% of Emax of PSC-RANTES)	anti-HIV potency (IC50, nM) by cell fusion assay	anti-HIV potency (IC50, nM) by viral replication assay
PSC-RANTES (ligand)	75	100	0.02 nM	0.281 nM
Met-RANTES (from UniProt P13501 24-91) (ligand)	26	15	75.1 nM	
AOP-RANTES, the aminooxypentane oxime of [glyoxylyl]1RANTES(2-68) (from UniProt P13501 25-91) (ligand)	71	80.7	1.12 nM	
NNY-RANTES (n-nonanoyl-RANTES(2-68)) (from UniProt P13501 25-91) (ligand)	77	84.5	0.29 nM	

Biological target: CCR5 (UniProt P51681)
Assay: cell-based or functional assay
Remark: another data set of the same source

Molecule	CCR5 sequestration (%) (% of control surface CCR5)	CCR5 signalling (%) (% of Emax of PSC-RANTES)	anti-HIV potency (IC50, nM) by cell fusion assay	anti-HIV potency (IC50, nM) by viral replication assay
B1	25	0.7	0.23 nM	
B2	15	6	0.23 nM	
B3	8	11.8	0.02 nM	
B4	7	12.7	0.02 nM	
B5	45	29.6	0.03 nM	
B6	50	42.7	0.03 nM	
B7	10	0.7	0.02 nM	0.179 nM
B8	28	17.2	0.04 nM	
B9	30	11.5	0.04 nM	
B10	42	33.4	0.07 nM	
B11	15	10.3	0.12 nM	
B12	24	10.6	0.17 nM	
B13	38	20.1	0.22 nM	
B14	0	2.5	0.03 nM	0.278 nM
B15	0	2.3	0.03 nM	0.403 nM
B16	9	1.6	0.03 nM	
B17	4	4.1	0.03 nM	0.204 nM

Molecule	CCR5 sequestration (%) (% of control surface CCR5)	CCR5 signalling (%) (% of Emax of PSC-RANTES)	anti-HIV potency (IC50, nM) by cell fusion assay	anti-HIV potency (IC50, nM) by viral replication assay
B18	9	< 5	0.07 nM	
B19	8	1.4	0.13 nM	
B20	2	2.4	0.65 nM	
B21	3	< 5	0.02 nM	
B22	70	96.3	0.02 nM	0.091 nM
B23	70	87.7	0.02 nM	129 nM
B24	69	90.1	0.08 nM	
B25	66	85.1	0.28 nM	
B26	71	95.6	0.66 nM	
B27	54	14.2	0.54 nM	
B28	12	2.4	0.02 nM	0.47 nM
B29	35	5.3	0.03 nM	0.625 nM
B30	35	2.4	0.03 nM	0.174 nM
B31	41	9.4	0.58 nM	
B32	59	45	0.03 nM	0.213 nM
B33	36	22.6	0.39 nM	
